83 variants from the RNAGym collection of RNA variant scans (doi:10.1093/molbev/msab373) can be followed below.

The labels stand for the following.
B1: Azoarcus group I ribozyme (parent)
chain: GUGCCUUGCGCCGGGAAACCACGCAAGGGAUGGUGUCAAAUUCGGCGAAACCUAAGCGCCCGCCCGGGCGUAUGGCAACGCCGAGCCAAGCUUCGGCGCCUGCGCCGAUGAAGGUGUAGAGACUAGACGGCACCCACCUAAGGCAAACGCUAUGGUGAAGGCAUAGUCCAGGGAGUGGCGAAAGUCACACAAACCGG

The series covers variants of B1. Put plainly: reverse-splicing fitness (ratio to wild type); higher = more active; in vitro selection; Mg2+ level not given. The method, boiled down: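 An in vitro group I ribozyme library with randomized positions was T7-transcribed and gel-purified. In triplicate, 10 pmol RNA in EPPS pH 7.5 was reacted with 50 pmoles of a 30-nt RNA substrate for 1 h at 37 °C across several added MgCl2 levels (1–48 mM), then stopped with EDTA. Products were reverse transcribed from a substrate-complementary primer, PCR-amplified and sequenced (HiSeq 4000). Fitness is a variant's read proportion after selection over that before, normalised to wild type.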
For C82U A111U A120G A145G C150U C169G, the reverse-splicing fitness was found to be 0.00964.
Consider C82G A111G A120G A145G C150G C169G U176C, for which the reverse-splicing fitness was 0.0118.
For C82U A111U A120C A145C C169G U176C, the reverse-splicing fitness is 0.0105.
The same measure for C82A A111C A120G A145U C150G C169G U176A: 0.00626; for C150G C169G U176A: 0.00867.
Then C82G A111U A145C C169U, with 0.0121; and C82U A111U A120C C150A C169U U176A, with 0.0229; and C82A A111C A145C C150U U176A, with 0.0236.
As to C82U A111C A120C C150A C169G U176G, the reverse-splicing fitness amounted to 0.00704.
Take A111C A145G C150U C169G U176G: the reverse-splicing fitness is 0.00741.
On to C82A A111U A120U C150G C169A U176C, for which the reverse-splicing fitness came to 0.00557.
The same measure for C82U A111U A145U C150U C169U U176G: 0.00582.
Turning to A111C A120C A145C C150G C169G U176A, the reverse-splicing fitness was determined as 0.00861.
Then C82A A145G C150U C169G U176A, with 0.0138.
A111G A145C C150A C169A: the reverse-splicing fitness amounted to 0.00859.
Then A111C A120C C150G C169U, with 0.02; and C82A A111G C150G C169U U176G, with 0.00537; and C82A A111U A145U C150U C169U U176C, with 0.0143.
As for C82G A111G A145U C150U C169A U176A, the reverse-splicing fitness stood at 0.015.
Then C82U A111C A120G A145C C150A C169A U176C, with 0.00587; and C82U A111G A120C A145G C150A C169G U176A, with 0.0237.
With A120C A145C C150G C169G U176A, the reverse-splicing fitness was determined as 0.00848.
The same measure for C82U A111G A145G C150G C169U U176G: 0.00654.
The same measure for A111G A145C C169G U176C: 0.0431.
Take C82A A111G A120G A145C C150U U176A: the reverse-splicing fitness was 0.00898.
Then A111G A120G A145G C150A U176G, with 0.00788; and A111U A120G A145C C150A C169U U176C, with 0.0114; and C82A A111G A120G A145U C150U U176C, with 0.014.
Turning to C82U A111U A120U A145G C150G C169G U176A, the reverse-splicing fitness stood at 0.00749.
Then C82G A120C A145C C150G C169U U176G, with 0.00406.
For the variant C82U A111C A120U C169U U176G, the reverse-splicing fitness was 0.00178.
Then C82A A111U C150A C169A, with 0.0117; and C82G A120G A145G C169A U176G, with 0.00439.
Then C82A A120G C150G C169U U176G, with 0.00654.
Then C82A A111C A120G C150A C169G U176C, with 0.0234.
In the case of A111G C150U C169A U176A, the reverse-splicing fitness was found to be 0.0169.
On to C82U A145U C150G C169U, for which the reverse-splicing fitness turned out to be 0.00842.
On to A111G A145G C150G C169G U176C, for which the reverse-splicing fitness was 0.00813.
Then C82U A111C A145U C150G U176C, with 0.0156; and C82U A111C A145U C150G U176A, with 0.0108; and A120U C150A C169A U176G, with 0.00205.
The same measure for C82U A111U A145U: 0.329; for C82U A111U A145C C169U U176A: 0.0134.
Then C82U A111C A120U A145G C150U C169U U176A, with 0.00522; and C82G A120U C150A C169A U176G, with 0.00205.
Take C82A A120U C150A U176G: the reverse-splicing fitness amounted to 0.00257.
In the case of C82G A145C C169U U176G, the reverse-splicing fitness was determined as 0.00465.
Then A111U A120U A145G C169U, with 0.076; and C82G A111C U176C, with 0.139.
Regarding C82G A111U A120C U176C, the reverse-splicing fitness stood at 0.0303.
In the case of A111G A120C A145G C150A C169G U176C, the reverse-splicing fitness worked out at 0.0221.
The same measure for C82A A111U A120G A145U C150G C169G: 0.00685; for A120C A145G C150G C169A U176G: 0.00789.
For A111U A120C C150U C169U U176C, the reverse-splicing fitness was 0.0362.
Then C82G A111G C150G C169U, with 0.0107.
Then C82A A111C A120U A145U C150U U176A, with 0.00713.
Then A111U A120C A145U C150A C169U, with 0.0213.
Regarding A120C A145G C150U U176G, the reverse-splicing fitness was 0.179.
Then A145G C150U C169A, with 0.136; and C82A A120C A145G C150G U176C, with 0.0148.
Then C82G A111C A120G A145C C150A C169G U176A, with 0.0248; and C82A A111C A120C A145G C150U C169G U176G, with 0.00711; and C82A A111C A120C A145C C150A U176C, with 0.011.
C82U A111C A145C C150U: the reverse-splicing fitness was found to be 0.0562.
Then C82U A111G A120U A145G C169G U176C, with 0.00294; and C82G A120G C150A C169A U176A, with 0.0208.
Consider C82G A111U A120G C150U C169G U176C, for which the reverse-splicing fitness worked out at 0.0205.
As to A111G A120C A145U C150G C169A U176G, the reverse-splicing fitness turned out to be 0.00414.
The same measure for C82U A120C A145U C150G C169A: 0.00827.
For A111C A120G C150A C169A U176C, the reverse-splicing fitness is 0.023.
Then C82G A111C A120U A145U C150A C169U, with 0.00311.
Then A111G A120C A145G C150U U176A, with 0.287; and C82U A111U A120C A145G C150A C169G U176C, with 0.0229.
Then A111U A120G A145C C150G C169A U176C, with 0.00757; and A111C A120G A145C C150U C169U, with 0.0398.
Regarding A111C A120G A145C C169A U176G, the reverse-splicing fitness stood at 0.00362.
Regarding A111U A145G C150A C169A U176G, the reverse-splicing fitness is 0.0068.
Then C82U A120C A145U U176G, with 0.0114; and C82A A111U A120C C169A, with 0.00982; and C82U A111C A120C A145C C150A C169A U176G, with 0.00679.
Then C82U A111G A120U A145C C150A C169A U176G, with 0.00186; and C82U A111G A120U C150U C169U U176G, with 0.0019; and C82G A111U A120G A145U C150U C169A U176G, with 0.00501.
